PMC7192595

Substance: MBP-Leish4E-IP2_(1-134) (domain or fragment)
- reduction of the binding of SBP-LeishIF4E-3 (cell lysate) to m7GTP-agarose by 0, 5, 10, 20 ug MBP-Leish4E-IP2 (1-134) per 300 ul, densitometry of anti-SBP blots; 60% at 5 ug (LeishIF4E-3-SBP): 96%
- reduction of the binding of SBP-LeishIF4E-1 (cell lysate) to m7GTP-agarose by 0, 5, 10, 20 ug MBP-Leish4E-IP2 (1-134) per 300 ul, densitometry of anti-SBP blots; 13% at 5 ug; MBP alone had no effect (LeishIF4E-1-SBP): 42%
